According to US20190276499A1, “Protein VII Fragments and Methods of Use Thereof for the Treatment of Inflammatory Disorders” (priority 2016, published 2019):

Target: T1, HMGB2 (Homo sapiens, UniProt P26583)
T1 construct: endogenous in cells; host or cells: THP-1 (PMA-differentiated)
T1 sequence (P26583 1-209): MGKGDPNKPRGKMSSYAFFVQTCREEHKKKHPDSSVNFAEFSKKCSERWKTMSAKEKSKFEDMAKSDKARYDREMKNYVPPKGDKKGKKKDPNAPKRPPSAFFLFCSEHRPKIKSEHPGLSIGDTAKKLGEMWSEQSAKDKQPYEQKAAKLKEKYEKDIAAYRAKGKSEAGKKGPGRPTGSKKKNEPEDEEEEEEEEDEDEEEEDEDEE
Experiment: Salt fractionation of nuclei, western blot for HMGB2
Type: cell-based
Details: upon protein VII expression
Method: Salt fractionation of nuclei was adapted from established protocols (Zaret, K. (2005) Micrococcal nuclease analysis of chromatin structure. Curr. Protoc. Mol., Biol. Chapter 21, Unit 21.1; Teves et al. (2012) Methods Mol. Biol., 833:421-432). Briefly, 2-4×10^7 cells were collected and resuspended in 2 mL of ice-cold buffer I (0.32 M sucrose, 60 mM KCl, 15 mM NaCl, 5 mM MgCl2, 0.1 mM EGTA, 15 mM Tris, pH 7.5, 0.5 mM DTT, 0.1 mM PMSF and protease inhibitor cocktail from Roche). To dissolve the plasma membrane, 2 mL ice-cold buffer I supplemented with 0.1% IGEPAL were added and samples were incubated on ice for 10 minutes. The 4 mL of nuclei was layered on 8 mL of ice-cold buffer II (1.2 M sucrose, 60 mM KCl, 15 mM NaCl, 5 mM MgCl2, 0.1 mM EGTA, 15 mM Tris, pH 7.5, 0.5 mM DTT, 0.1 mM PMSF and protease inhibitor cocktail from Roche) and centrifuged for 20 minutes at 10,000×g and 4° C. The pelleted nuclei were resuspended in 400 μL buffer III (10 mM Tris pH 7.4, 2 mM MgCl2, 0.1 mM PMSF) supplemented with 5 mM CaCl2 and the DNA was digested to mononucleosomes by addition of 1 unit of MNase (Sigma-Aldrich, N3755). […] The final pellet was resuspended in 400 μL ddH2O and all samples were analyzed together by western blot. An aliquot of each supernatant was set aside for DNA purification using a PCR purification kit (Qiagen) and analyzed by agarose gel electrophoresis. […]

B1: protein VII: mature protein VII of human adenovirus type 5 (SEQ ID NO:1), expressed in cells, mostly with C-terminal HA tag (protein)
chain: AKKRSDQHPVRVRGHYRAPWGAHKRGRTGRTTVDDAIDAVVEEARNYTPTPPPVSTVDAAIQTVVRGARRYAKMKRRRRRVARRHRRRPGTAAQRAAAALLNRARRTGRRAAMRAARRLAAGIVTVPPRSRRRAAAAAAAAISAMTQGRRGNVYWVRDSVSGLRVPVRTRPPRN
modifications: C-terminal HA tag; Human adenovirus 5
Chromatin association of HMGB2 (fractionated nuclei): Increased chromatin association
